Where a chain is given by its changes, count along the chain named.
B1: [Ala^1,Thr^2,Glu^33,Glu^53] desulfatohirudin (protein)
chain: ATYTDCTESGQNLCLCEGSNVCGQGNKCILGSDGEKNQCVTGEGTPKPQSHNEGDFEEIPEEYLQ
B2: [Ala^1,Thr^2,Gln^52,Glu^53,Glu^55] desulfatohirudin (protein)
chain: B1 chain with N52Q, D55E
B3: [Ala^1,Thr^2,Glu^33,Gln^52,Glu^53,Ala^54]-desulfatohirudin (protein)
chain: B1 chain with D33E, N52Q, G54A
B4: [Ala^1,Thr^2,Ala^54] desulfatohirudin (protein)
chain: B1 chain with E53D, G54A
B5: [Ala^1,Thr^2,Glu^33,Ala^54] desulfatohirudin (protein)
chain: B1 chain with D33E, E53D, G54A
B6: [Ala^1,Thr^2,Glu^33,Gln^52,Glu^53,Glu^55]-desulfatohirudin (protein)
chain: B1 chain with D33E, N52Q, D55E
B7: [Ala^1,Thr^2,Gln^52,Glu^53,Ala^54] desulfatohirudin (protein)
chain: B1 chain with N52Q, G54A
B8: [Ala^1,Thr^2,Glu^33] desulfatohirudin (protein)
chain: B1 chain with D33E, E53D
B9: [Ala^1,Thr^2,Glu^53] desulfatohirudin (protein)
chain: B1 chain

Biological target: thrombin
Test: Ki(app.) from kinetics of thrombin inhibition with chromogenic substrate D-HHT-Gly-Arg-pNA (Stone and Hofsteenge), 25° C.

Row | Ki [nM] | Molecule
1 | 0.61 | [Ile^1,Thr^2] desulfatohirudin
2 | 0.14 | [Leu^1,Thr^2] desulfatohirudin
3 | 0.2 | [Ala^1,Thr^2] desulfatohirudin
4 | 0.37 | B1
5 | 0.19 | B2
6 | 0.31 | B3
7 | 0.27 | B4
8 | 0.35 | B5
9 | 0.3 | B6
10 | 0.22 | B7
11 | 0.16 | B8
12 | 0.38 | B9

From patent US5286714
